Source: publication PMC4655838, “Versatility in phospho-dependent molecular recognition of the XRCC1 and XRCC4 DNA-damage scaffolds by aprataxin-family FHA domains” (DNA Repair, 2015)
Square brackets hold non-standard residues; d marks the D form. Ends that are not written are not given here. pT = C[C@@H](OP(=O)(O)O)[C@H](N)C(=O)O; pS = N[C@@H](COP(=O)(O)O)C(=O)O

B1: XRCC1 515-529 peptide phosphorylated on Ser518, Thr519 and Thr523 (peptide)
peptide: YAG[pS][pT]DEN[pT]DSEEHQ-NH2
modifications: N-terminus assumed
SMILES: C[C@H](NC(=O)[C@@H](N)Cc1ccc(O)cc1)C(=O)NCC(=O)N[C@@H](COP(=O)(O)O)C(=O)N[C@H](C(=O)N[C@@H](CC(=O)O)C(=O)N[C@@H](CCC(=O)O)C(=O)N[C@@H](CC(N)=O)C(=O)N[C@H](C(=O)N[C@@H](CC(=O)O)C(=O)N[C@@H](CO)C(=O)N[C@@H](CCC(=O)O)C(=O)N[C@@H](CCC(=O)O)C(=O)N[C@@H](Cc1c[nH]cn1)C(=O)N[C@@H](CCC(N)=O)C(N)=O)[C@@H](C)OP(=O)(O)O)[C@@H](C)OP(=O)(O)O
B2: XRCC4 229-237 peptide phosphorylated on Ser232, Thr233 and Ser237 (peptide)
peptide: YDE[pS][pT]DEE[pS]-NH2
modifications: N-terminus assumed
SMILES: C[C@@H](OP(=O)(O)O)[C@H](NC(=O)[C@H](COP(=O)(O)O)NC(=O)[C@H](CCC(=O)O)NC(=O)[C@H](CC(=O)O)NC(=O)[C@@H](N)Cc1ccc(O)cc1)C(=O)N[C@@H](CC(=O)O)C(=O)N[C@@H](CCC(=O)O)C(=O)N[C@@H](CCC(=O)O)C(=O)N[C@@H](COP(=O)(O)O)C(N)=O
B3: XRCC1 515-529 peptide phosphorylated solely on Thr523 (peptide)
peptide: YAGSTDENTDSEEHQ
HELM: PEPTIDE1{Y.A.G.S.T.D.E.N.[C[C@@H](OP(=O)(O)O)[C@H](N[*:1])C(=O)[*:2]].D.S.E.E.H.Q.[am]}$$$$V2.0; N-terminus assumed
SMILES: C[C@H](NC(=O)[C@@H](N)Cc1ccc(O)cc1)C(=O)NCC(=O)N[C@@H](CO)C(=O)N[C@H](C(=O)N[C@@H](CC(=O)O)C(=O)N[C@@H](CCC(=O)O)C(=O)N[C@@H](CC(N)=O)C(=O)N[C@H](C(=O)N[C@@H](CC(=O)O)C(=O)N[C@@H](CO)C(=O)N[C@@H](CCC(=O)O)C(=O)N[C@@H](CCC(=O)O)C(=O)N[C@@H](Cc1c[nH]cn1)C(=O)N[C@@H](CCC(N)=O)C(N)=O)[C@@H](C)OP(=O)(O)O)[C@@H](C)O
B4: XRCC4 229-237 peptide phosphorylated on Ser232 and Thr233 (peptide)
peptide: YDESTDEES
HELM: PEPTIDE1{Y.D.E.[O=C([C@H](COP(=O)(O)O)N[*:1])[*:2]].[C[C@@H](OP(=O)(O)O)[C@H](N[*:1])C(=O)[*:2]].D.E.E.S.[am]}$$$$V2.0; N-terminus assumed
SMILES: C[C@@H](OP(=O)(O)O)[C@H](NC(=O)[C@H](COP(=O)(O)O)NC(=O)[C@H](CCC(=O)O)NC(=O)[C@H](CC(=O)O)NC(=O)[C@@H](N)Cc1ccc(O)cc1)C(=O)N[C@@H](CC(=O)O)C(=O)N[C@@H](CCC(=O)O)C(=O)N[C@@H](CCC(=O)O)C(=O)N[C@@H](CO)C(N)=O
B5: XRCC4 229-237 peptide phosphorylated on Thr233 (peptide)
peptide: YDESTDEES
HELM: PEPTIDE1{Y.D.E.S.[C[C@@H](OP(=O)(O)O)[C@H](N[*:1])C(=O)[*:2]].D.E.E.S.[am]}$$$$V2.0; N-terminus assumed
SMILES: C[C@@H](OP(=O)(O)O)[C@H](NC(=O)[C@H](CO)NC(=O)[C@H](CCC(=O)O)NC(=O)[C@H](CC(=O)O)NC(=O)[C@@H](N)Cc1ccc(O)cc1)C(=O)N[C@@H](CC(=O)O)C(=O)N[C@@H](CCC(=O)O)C(=O)N[C@@H](CCC(=O)O)C(=O)N[C@@H](CO)C(N)=O
B6: XRCC1 515-529 peptide phosphorylated on Ser518 and Thr519 (peptide)
peptide: YAGSTDENTDSEEHQ
HELM: PEPTIDE1{Y.A.G.[O=C([C@H](COP(=O)(O)O)N[*:1])[*:2]].[C[C@@H](OP(=O)(O)O)[C@H](N[*:1])C(=O)[*:2]].D.E.N.T.D.S.E.E.H.Q.[am]}$$$$V2.0; N-terminus assumed
SMILES: C[C@H](NC(=O)[C@@H](N)Cc1ccc(O)cc1)C(=O)NCC(=O)N[C@@H](COP(=O)(O)O)C(=O)N[C@H](C(=O)N[C@@H](CC(=O)O)C(=O)N[C@@H](CCC(=O)O)C(=O)N[C@@H](CC(N)=O)C(=O)N[C@H](C(=O)N[C@@H](CC(=O)O)C(=O)N[C@@H](CO)C(=O)N[C@@H](CCC(=O)O)C(=O)N[C@@H](CCC(=O)O)C(=O)N[C@@H](Cc1c[nH]cn1)C(=O)N[C@@H](CCC(N)=O)C(N)=O)[C@@H](C)O)[C@@H](C)OP(=O)(O)O
B7: XRCC1 515-529 peptide phosphorylated on Thr519 (peptide)
peptide: YAGSTDENTDSEEHQ
HELM: PEPTIDE1{Y.A.G.S.[C[C@@H](OP(=O)(O)O)[C@H](N[*:1])C(=O)[*:2]].D.E.N.T.D.S.E.E.H.Q.[am]}$$$$V2.0; N-terminus assumed
SMILES: C[C@H](NC(=O)[C@@H](N)Cc1ccc(O)cc1)C(=O)NCC(=O)N[C@@H](CO)C(=O)N[C@H](C(=O)N[C@@H](CC(=O)O)C(=O)N[C@@H](CCC(=O)O)C(=O)N[C@@H](CC(N)=O)C(=O)N[C@H](C(=O)N[C@@H](CC(=O)O)C(=O)N[C@@H](CO)C(=O)N[C@@H](CCC(=O)O)C(=O)N[C@@H](CCC(=O)O)C(=O)N[C@@H](Cc1c[nH]cn1)C(=O)N[C@@H](CCC(N)=O)C(N)=O)[C@@H](C)O)[C@@H](C)OP(=O)(O)O

Columns and labels:
[1] = target: aprataxin FHA domain (residues 1-105); assay: NMR titration; unlabelled XRCC1 peptide added to 92 μM 15N-labelled aprataxin FHA domain up to 1:4; 22 °C; 20 mM Na acetate pH 5.8, 50 mM NaCl, 2 mM DTT; SOFAST-HMQC; apparent Kd, mean of the fits for D37, V45, Q46, V61 and V63
[2] = target: aprataxin FHA domain (residues 1-105); assay: ITC; peptide injected (30 x 10 ul) into FHA domain in the cell; 22 °C; 50 mM HEPES pH 7.5, 150 mM NaCl, 5 mM β-mercaptoethanol; XRCC1 peptides 1 mM into 100 μM protein, XRCC4 peptides 300 μM into 30 μM protein; single-site binding model
[3] = target: aprataxin FHA domain K38A (residues 1-105); assay: as above

Binder	Kd [1] [µM]	fold increase in binding over the di-phosphorylated peptide [2] [fold]	fold preference over the mono-phosphorylated (pT233) XRCC4 peptide [2] [fold]	fold decrease in binding relative to the wild-type [3] [fold]	fold increase in binding over the mono-phosphorylated peptide [2] [fold]	fold tighter binding than the XRCC1 pThr519 peptide [2] [fold]
B1	< 1	3	5	8.8	–	–
B2	–	–	–	9.3	–	–
B3	7	–	–	–	–	–
B4	–	–	–	7.6	8	–
B5	–	–	–	3.2	–	8
B6	2	–	–	8.5	11	–
B7	7	–	–	2.7	–	–
